Results as given in patent US20140087991A1, “PEPTIDE PRODRUGS” (The Johns Hopkins University, priority 2006, published 2014).
Peptide text beside a SMILES is read from it.

Key:
FAP [1] = target: T1, FAP (Homo sapiens, UniProt Q12884); conditions: previously demonstrated; cited from earlier work
T1 sequence (Q12884 1-760): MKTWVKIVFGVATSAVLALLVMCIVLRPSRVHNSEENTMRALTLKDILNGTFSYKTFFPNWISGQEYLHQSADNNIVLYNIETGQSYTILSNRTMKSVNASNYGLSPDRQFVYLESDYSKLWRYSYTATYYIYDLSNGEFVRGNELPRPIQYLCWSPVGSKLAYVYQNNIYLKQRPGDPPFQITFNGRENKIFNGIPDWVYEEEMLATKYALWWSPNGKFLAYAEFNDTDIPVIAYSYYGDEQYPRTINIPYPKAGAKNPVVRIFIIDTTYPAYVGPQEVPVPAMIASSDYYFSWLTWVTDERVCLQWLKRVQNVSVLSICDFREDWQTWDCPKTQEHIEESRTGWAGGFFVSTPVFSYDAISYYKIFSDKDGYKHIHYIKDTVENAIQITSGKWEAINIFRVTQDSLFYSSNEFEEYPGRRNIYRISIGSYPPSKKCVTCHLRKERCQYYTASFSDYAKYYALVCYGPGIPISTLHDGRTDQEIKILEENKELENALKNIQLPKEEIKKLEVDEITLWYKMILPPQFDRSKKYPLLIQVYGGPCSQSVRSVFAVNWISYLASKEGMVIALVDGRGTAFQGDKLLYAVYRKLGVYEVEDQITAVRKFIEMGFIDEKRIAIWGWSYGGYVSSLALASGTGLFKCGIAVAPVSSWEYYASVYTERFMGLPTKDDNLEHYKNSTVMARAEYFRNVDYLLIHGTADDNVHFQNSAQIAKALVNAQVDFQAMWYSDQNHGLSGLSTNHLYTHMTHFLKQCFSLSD

FAP [2] = target: T2, FAP (Homo sapiens, UniProt Q12884); assay: FAP gelatinase and collagenase assay with quenched (DQ) proteins; format: biochemical; conditions: 100 μgs/ml protein substrate
T2 construct: the extracellular domain of FAP was cloned with a His-6 tag; made in house
T2 sequence (Q12884 26-760 limits assumed): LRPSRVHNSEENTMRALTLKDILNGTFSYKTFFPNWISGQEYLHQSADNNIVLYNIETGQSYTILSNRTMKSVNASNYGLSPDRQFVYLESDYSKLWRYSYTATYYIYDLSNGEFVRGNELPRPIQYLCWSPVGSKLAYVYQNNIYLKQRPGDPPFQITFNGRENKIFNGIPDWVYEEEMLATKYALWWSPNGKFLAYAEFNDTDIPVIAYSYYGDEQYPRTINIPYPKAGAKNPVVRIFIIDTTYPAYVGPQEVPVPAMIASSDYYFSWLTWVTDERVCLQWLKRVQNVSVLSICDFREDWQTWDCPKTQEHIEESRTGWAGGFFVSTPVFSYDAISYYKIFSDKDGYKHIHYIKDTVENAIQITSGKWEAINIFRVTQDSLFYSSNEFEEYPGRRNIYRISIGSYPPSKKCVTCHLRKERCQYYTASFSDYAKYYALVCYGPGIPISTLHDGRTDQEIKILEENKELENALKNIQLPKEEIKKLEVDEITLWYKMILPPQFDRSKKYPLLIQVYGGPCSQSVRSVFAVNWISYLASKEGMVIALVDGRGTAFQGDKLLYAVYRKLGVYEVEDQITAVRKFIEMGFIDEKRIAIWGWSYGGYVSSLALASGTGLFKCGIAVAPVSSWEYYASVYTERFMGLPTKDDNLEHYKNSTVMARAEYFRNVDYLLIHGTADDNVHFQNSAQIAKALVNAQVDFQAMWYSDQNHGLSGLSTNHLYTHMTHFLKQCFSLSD
Method: Quenched gelatin and collagen conjugates were used to detect and confirm FAP's gelatinase and collagenase activity. DQ™ Gelatin from pig skin, DQ™ collagen, type IV from human placenta, DQ™ collagen, type I from bovine skin, all as fluorescent conjugates (Invitrogen, Rockville, Md.) were digested with FAP and digestion monitored on a fluorescence plate reader. Protein substrates were dissolved in reaction buffer (100 mM NaCl, 100 mM Tris, pH 7.8) to a final concentration of 100 μgs/ml. Trypsin digestion was used as a positive control. As a negative control the His tagged extra cellular domain of Prostate Specific Membrane Antigen (PSMA), which was similarly purified from S2 cells under the same conditions as FAP. Fluorescent quenched DQ™ Bovine Serum Albumin was used as a negative control for FAP protease activity.
Quenched forms of Gelatin and Collagen were used to confirm the gelatinase and collagenase activity of recombinant FAP. Quenching is achieved by labeling these proteins with the fluorophore FITC such that fluorescence signal from the intact protein is minimal due to is self-quenching by the fluorphore. Protein digestion releases FITC-labeled fragments that result in measurable increase in overall fluorescence signal from the reaction mixture. […] On a relative basis gelatin was digested ˜10-fold better by FAP than collagen I. MALDI analysis of digested fragments was performed to confirm hydrolysis.

FAP [3] = target: T2, FAP; assay: LC-MS/MS cleavage map of FAP digest of 8.5 kDa recombinant human gelatin; format: biochemical; conditions: 8.5 kDa gelatin digest; for Normalized Ion Current: peak with lowest ion current assigned 1.0
Method: (§1) Human collagen I (Becton Dickinson, Franklin Lakes, N.J.) and recombinant human gelatins of 100 KDa and 8.5 KDa (Fibrogen, San Francisco, Calif.) were dissolved in reaction buffer to a final concentration of 100-300 μg/ml. 0.5-1 μg of FAP was added per 100 μgs of protein substrate. Digestion was done for 4-6 hrs at 37° C. As a positive control trypsin digestion was used. As a negative control, protein solutions were incubated either with BSA or buffer only. Peptide fragments of a size <30 KDa were purified using 30 KDa Microcon spin filter (Millipore, Billerica, Mass.).
(§2) Peptides obtained from FAP/gelatin digests were dried using a speedvac (Eppendorf), resuspended in LC/MS loading buffer (3% ACN, 0.1% formic acid), and analyzed using nano-flow LC/MS/MS on an Agilent 1100 series nano-LC system (Agilent) coupled to an LCQ Duo ion trap mass spectrometer (ThermoFinnigan). Peptides were pre-concentrated on a 5 mm Zorbax C18 trap column (Agilent) and then eluted onto a 100×0.075 mm custom-packed Biobasic C18 (ThermoElectron) reversed phase capillary column connected to a laser-pulled electrospray ionization emitter tip (New Objective) at a flowrate of 300 nl/min Peptides were eluted the nanospray source of the LCQ (Proxeon, Denmark) using the following gradient: 0% B at 0 min, 5% B at 8 min, 45% B at 50 min, 90% B at 55 min, 90% B at 60 min (B=0.1% formic acid in acetonitrile) at a spray voltage of 2.5 kV. The LCQ was operated in data-dependent mode using the Xcalibur software (ThermoFinnigan) in which every MS scan (400-1800 m/z) was followed by MS/MS scans (400-1800 m/z) on the 3 most intense ions using an isolation window of ±1.5 Da. Ions selected for MS/MS fragmentation were dynamically excluded for 30 s.
(§3) MS/MS data were searched against a collagen FASTA database using the SEQUEST search algorithm built into the Bioworks Browser (ThermoFinnigan) allowing for the variable modification of Methionine oxidation. Peptides were initially filtered in a charge dependent manner using an XCorr filter of 1.5, 2, and 2.5 for singly, doubly, and triply charged peptides. All MS/MS spectra used to identify peptides were manually inspected for validation of y and b-ion series. To quantify the relative abundance of each identified peptide we compared the ion current for each of the observed peptide parent ions from the MS spectra. The contribution of each parent ion to the total ion current was extracted and integrated over the peptide elution peak.
As Collagen I and Gelatin are currently the only known protein substrates for FAP, we needed to develop an alternative method to identify FAP-selective cleavage sites within these proteins. […] The masses of fragments <3 KDa were purified for MALDI spectra and again analyzed by FindPept tool. […]

FAP [4] = target: T2, FAP; assay: LC-MS/MS cleavage map of FAP digest of 100 kDa recombinant human gelatin; format: biochemical; conditions: 100 kDa gelatin digest; for Percentage: share of all occurrences
Method: as §1, §2, §3
To resolve each particular mass fragment a Liquid Chromatograpy (LC) and Tandem mass spectroscopy (MS-MS) [LC-MS-MS] method was developed. Using this method, peptide fragments from FAP digests of the 8.5 kDa and 100 kDa recombinant gelatin were time-resolved by nano reverse phase LC (FIGS. 12 and 14) and then sequenced using an ion trap mass spectrometer operating in MS/MS mode. Initial methodological issues were worked out using the 8.5 kDa fragment before analyzing the entire 100 kDa protein. MS/MS spectra were searched against the 8.5 kDa and 100 kDa gelatin sequences using the SEQUEST algorithm with no cleavage specificity. Most of the identified cleavage sites in both sized gelatins occurred after Proline. However, FAP cleavage sites in these gelatins were not restricted to Proline alone. FAP was also found to cleave after Ala (e.g. A/A, A/G, A/P, A/R), Asp (e.g. D/G, D/T), Gly (e.g. G/A, G/E, G/L, G/Q, G/P, G/V), Glu (i.e., E/P), Lys (i.e., K/A, K/G), Ser (e.g. S/P) and Val (e.g. V/G).
To identify the most preferentially cleaved sites, we relatively quantified the abundance of each of the identified peptides by integrating the ion current generated by each peptide throughout the chromatogram. After identification of a peptide from a MS/MS spectrum, we extracted the ion current for the parent mass of the ion from the total MS ion chromatogram using a 1.5 Da tolerance window, and then integrated under the peak (FIGS. 12 and 14). […]

all cell lines tested = assay: Cytotoxicity, average IC50 over cell lines; format: cell-based
FAP [5] = target: T2, FAP; assay: FAP dipeptidyl peptidase assay; format: biochemical
Method: Quantitative assay for dipeptidyl peptidase activity were developed using Ala-Pro-AFC as the substrate as described by Park et al^18. Purified protein was mixed with 5-10-fold volumes of reaction buffer (100 mM NaCl, 100 mM Tris, pH 7.8), and added to an equal volume of 0.5 mM Ala-Pro-AFC in reaction buffer followed by incubation for 1 h at 37° C. Release of free AFC was measured in a DTX 880 Multimode Detector (Beckman, Fullerton, Calif.) using the 395 nm excitation/530 nm emission filter set.

Collagen I: FITC-quenched DQ collagen I from bovine skin; in b297 Collagen I of the cited literature
cleavage by FAP (FAP [1]): could cleave | hydrolysis of FITC-quenched protein by FAP (FAP [2]): readily hydrolyzed

P.AGQDGRPGPPGPPGARGQAG.V: FAP cleavage fragment of 100 kDa and 8.5 kDa recombinant human gelatin, MH+ 1799.89
Normalized Ion Current (FAP [3]): 1.0 | Occurences (FAP [4]): 1 | Percentage (FAP [4]): 0.48

P.KGAAGEPGKAGERGVPGPPGAVGP.A: FAP cleavage fragment of 100 kDa and 8.5 kDa recombinant human gelatin, MH+ 2113.12
Normalized Ion Current (FAP [3]): 46.8 | Occurences (FAP [4]): 5 | Percentage (FAP [4]): 2.38

C/C=C(/C)C(=O)O[C@H]1C(C)=C2[C@H]([C@@H]1OC(=O)CCCCCCC)[C@@](C)(OC(C)=O)C[C@H](OC(=O)CCC)[C@@]1(O)[C@H]2OC(=O)[C@@]1(C)O [thapsigargin]
IC50 (all cell lines tested): 0.1 nM

P.AGKDGEAGAQGPPGP.A: FAP cleavage fragment of 100 kDa and 8.5 kDa recombinant human gelatin, MH+ 1308.62 (PAGKDGEAGAQGPPGPA)
relative abundance of fragment by integrated ion current (FAP [3]): most abundantly identified fragment | Normalized Ion Current (FAP [3]): 234.8 | Occurences (FAP [4]): 2 | Percentage (FAP [4]): 0.95

CC(=O)O[C@H]1C(=O)[C@@]2(C)[C@H]([C@H](OC(=O)c3ccccc3)[C@]3(O)C[C@H](OC(=O)[C@H](O)[C@@H](NC(=O)c4ccccc4)c4ccccc4)C(C)=C1C3(C)C)[C@]1(OC(C)=O)CO[C@@H]1C[C@@H]2O [paclitaxel]
IC50 (all cell lines tested): 10 nM

fibronectin
cleavage by FAP (FAP [1]): not

Collagen IV: FITC-quenched DQ collagen IV from human placenta; in b297 Collagen IV of the cited literature
cleavage by FAP (FAP [1]): not | hydrolysis of FITC-quenched protein by FAP (FAP [2]): not all digested

C[C@H](N)C(=O)N1CCC[C@H]1C(=O)Nc1ccc2c(C(F)(F)F)cc(=O)oc2c1 [Ala-Pro-AFC] (HELM PEPTIDE1{A.P.[O=c1cc(C(F)(F)F)c2ccc(N[*:1])cc2o1]}$$$$V2.0)
cleavage of dipeptide substrate by purified FAP (FAP [5]): same kinetic parameters as previously described
